Data from paper PMC8615460.
Ends that are not written are not given here.

How the values were obtained:
[1] = molecular target: full-length San1 (lysine residues changed to arginines) (Saccharomyces cerevisiae) (UniProt P22470)
[2] = molecular target: San1_(1–303) (lysine residues changed to arginines) (Saccharomyces cerevisiae) (UniProt P22470)
[3] = molecular target: San1_(1–303) (lysine residues changed to arginines) (Saccharomyces cerevisiae) (UniProt P22470); remark: listed apart in the source

| multi-turnover ubiquitylation: fraction of peptide substrate ubiquitylated, 5 to 15 min, substrate to San1 ratios 6:1 to 18:1 [1] [%] | multi-turnover ubiquitylation: fraction of peptide substrate ubiquitylated, same incubation period and 18:1 substrate to ligase ratio [2] [%] | limited proteolysis with chymotrypsin: stability of San1(1-303) with peptide substrate against without substrate [3] [fold] | limited proteolysis: fraction of radiolabeled San1(1-303) intact with chymotrypsin after 30 min, with excess peptide substrate [3] [%] | Binder |
| --- | --- | --- | --- | --- |
| 50 | 15 |  |  | Ac-CGSRRGSYNASSGEQMLSRTGFFLVLIVGQPLHNPVK (also: 32P phosphate added by cAMP-dependent protein kinase, residue not given here) [San1 peptide, radiolabeled] |
|  |  | 30 | 50 | Ac-CGSRRGSYNASSGEQMLSRTGFFLVLIVGQPLHNPVK [San1 peptide, unlabeled] |
